Assay results published in paper PMC5686756, “IKKγ-Mimetic Peptides Block the Resistance to Apoptosis Associated with Kaposi's Sarcoma-Associated Herpesvirus Infection” (Journal of Virology, 2017).

Key:
[1] = target: T1, GB1–ks-vFLIP (Human herpesvirus 8 type P, UniProt F5HEZ4); assay: biochemical; format: binding, Kaposi's sarcoma-associated herpesvirus
T1 construct: ks-vFLIP (residues 1 to 188) was PCR cloned into the EcoRI and XhoI sites of GB1-pBR22b; 6His (C); made in house; host or cells: E. coli BL21(DE3)
Method: We next sought to assess the affinity of spIKKγ for vFLIP using isothermal calorimetry (ITC).
Isothermal calorimetry (ITC) experiments were performed using a Microcal VP-ITC micocalorimeter (MicroCal). For all binding reactions, syringe concentrations varied between ∼85 and 100 μM for IKKγ(150–272) and cell concentrations between ∼8 and 10 μM for GB1-vFLIP. Titrations consisted of an initial 2-μl injection, followed by 20 10-μl injections with stirring at 300 rpm. In competition assays, GB1–ks-vFLIP was first incubated with 20 μM spIKKγ and DMSO to 4% prior to loading into the cell and titration with IKKγ(150–272). All ITC binding experiments were performed in deionized water at 25°C owing to the buffer constraints of spIKKγ, GB1–ks-vFLIP, and IKKγ(150–272), where GB1–ks-vFLIP and IKKγ(150–272) were buffer matched by overnight dialysis, followed by the addition of 4% DMSO to each. […] Following collection, all data were analyzed using ORIGIN 70 software and fitted to a one-site binding model with each experiment performed at least in triplicate.

[2] = system: IKKγ; assay: Thermofluor assay, thermal denaturation of IKKγ alone; format: physicochemical; conditions: various concentrations, SYPRO orange
Text: FIG 2 vFLIP-IKKγ interaction and peptide thermofluor analysis. (A) (Left) Cartoon depiction of the ks-vFLIP–IKKγ heterotetramic complex (PDB code 3CL3). The IKKγ and ks-vFLIP monomers are shown in gray and wheat, respectively. (Right) The ks-vFLIP-IKKγ dimer interface highlighting cleft 1 (white) and cleft 2 (cyan). Residues essential for the formation of the cleft 1 interactions (H235, F238, D242, and K246) are colored magenta, and those that interact with cleft 2 (Q236 and E240) are colored blue. (B) IKKγ ks-vFLIP minimal interacting motif (residues 230 to 248) together with those forming the 30- and 21-mer peptides (pink and violet, respectively) used in the thermofluor studies. (C) Thermal denaturation profiles for ks-vFLIP (left) and IKKγ (right) at various concentrations. […] (D) Thermal denaturation of ks-vFLIP in the presence of various concentrations of IKKγ (left) and the 21-mer (pink) and 30-mer (violet) (right) peptides.
Each experiment was repeated at least 3 times. All peptides were purchased from Eurogentec.

[3] = system: ks-vFLIP; conditions: IKKγ(150–272) at 30 μM; 30 μM ks-vFLIP unless otherwise stated, SYPRO orange; repeated at least 3 times
Method: To achieve this, an unmodified 30-mer peptide (residues 224 to 253) was designed to encompass the interacting motif and neighboring residues along with a 21-mer (residues 226 to 248), only marginally longer than the motif itself (residues 230 to 248 [Fig. 2B]). These were commercially synthesized and their ability to associate with ks-vFLIP was assessed using a thermofluor assay (Fig. 2C and D).
Thermofluor studies were conducted using the MyIQ reverse transcription-PCR (RT-PCR) system (Bio-Rad) in a 96-well plate format. Trials were performed in which 30 μM ks-vFLIP (unless otherwise stated) was combined with either IKKγ or mimetic peptides (at the specified concentrations) prior to the addition of SYPRO orange diluted in a 1:1,000 (vol/vol) ratio and thermal denaturation. The data were subsequently processed using the Bio-Rad iQ5 software. Each experiment was repeated at least 3 times.

T1 sequence (F5HEZ4 whole entry, the tested form may be a part): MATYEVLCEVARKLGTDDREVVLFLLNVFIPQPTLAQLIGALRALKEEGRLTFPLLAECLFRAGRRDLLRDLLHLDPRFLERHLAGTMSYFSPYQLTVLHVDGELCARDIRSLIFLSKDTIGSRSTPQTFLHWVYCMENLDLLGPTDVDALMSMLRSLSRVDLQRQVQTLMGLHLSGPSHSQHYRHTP

B1: IKKγ(150–272): IKKγ fragment encompassing residues 150 to 272 (protein)
chain: LGELQESQSRLEAATKECQALEGRARAASEQARQLESEREALQQQHSVQVDQLRMQGQSVEAALRMERQAASEEKRKLAQLQVAYHQLFQEYDNHIKSSVVGSERKRGMQLEDLKQQLQQAEE
apparent dissociation constant (Kd) of the vFLIP-IKKγ interaction in the presence of peptide ([1]; GB1–ks-vFLIP preincubated with 20 μM spIKKγ, 4% DMSO, deionized water, 25°C, at least triplicate): 30 µM | binding affinity for ks-vFLIP, spIKKγ compared with IKKγ(150–272) ([1]; ITC): nearly equivalent binding affinities | thermal denaturation response of IKKγ [2]: lack of a significant response | shift in melting temperature of ks-vFLIP [3]: ~8 °C
